Source: article PMC8144572, “Molecular model of a sensor of two-component signaling system” (Scientific Reports, 2021)

B1: full-length NpSRII/NpHtrII complex (complex)
chain 1: MVGLTTLFWLGAIGMLVGTLAFAWAGRDAGSGERRYYVTLVGISGIAAVAYVVMALGVGWVPVAERTVFAPRYIDWILTTPLIVYFLGLLAGLDSREFGIVITLNTVVMLAGFAGAMVPGIERYALFGMGAVAFLGLVYYLVGPMTESASQRSSGIKSLYVRLRNLTVILWAIYPFIWLLGPPGVALLTPTVDVALIVYLDLVTKVGFGFIALDAAATLRAEHGESLAGVDTDAPAVAD
chain 2: not shown
notes: Sensory rhodopsin II (NpSRII), Natronomonas pharaonis, UniProt P42196; no limits stated; as m1; Sensory rhodopsin II transducer (NpHtrII), Natronomonas pharaonis, UniProt P42259; as m2; also called sensory rhodopsin II/transducer complex; full-length phototaxis complex; source: E. coli BL21-AI (SAXS) or BL21(DE3) (SANS), co-expressed, solubilised in DDM, purified (Ni-NTA, SEC); not shown: …
B2: full-length transducer NpHtrII from Natronomonas pharaonis (natural protein)
chain: not shown
notes: Sensory rhodopsin II transducer (NpHtrII), Natronomonas pharaonis, UniProt P42259; gene optimised for expression in E. coli; also called cognate transducer; source: E. coli BL21-AI (SAXS) or BL21(DE3) (SANS), co-expressed with NpSRII, solubilised in DDM, purified (Ni-NTA, SEC); not shown: 6xHis-tag (with ENS-linker), C-terminal, kept

Tests used:
[1] = target: the molecule itself; assay: SANS; full-length complex 0.40 mg/ml in D2O buffer, 4.0 M NaCl, 100 mM Na/Na-Pi pD 8.0, 1 mM EDTA, 0.05% DDM; OLIGOMER fit to a mixture of dimers and trimers of dimers (trimer of dimers = six NpSRII/NpHtrII units)
[2] = target: the molecule itself; assay: SAXS; detergent-solubilised (DDM) complex, peak fractions after gel filtration; low salt (150 mM NaCl); 0.57 mg/ml full-length and 0.78 mg/ml truncated complex; BM29 (ESRF); curves fitted with atomistic dimer models with a detergent belt (MEMPROT, CRYSOL3)

Protein	stoichiometry N [1]	stoichiometry N [2]	binding result [1]
B1	6	2	–
B2	–	–	binds
